Measured values as given in the supplement of paper PMC7877785.
± gives the uncertainty stated by the source.

Test: self-splicing fitness, log relative to wild type (ln ratio); higher = more splicing; Tetrahymena group I intron in knt gene, E. coli kanamycin selection, DiMSum; sequences stand for … in CUCUCU…GGAGGGAAAAGUUAUCAGGCAUGCACCUGGUAGCUAGUCUUUAAACCAAUAGAUUGCAUCGGUUUAAAAGGCAAGACCGUCAAAUUGCGGGAAAGGGGUCAACAGCCGUUCAGUACCAAGUCUCAGGGGAAACUUUGAGAUGGCCUUGCAAAGGGUAUGGUAAUAAGCUGACGGACAUGGUCCUAACCACGCAGCCAAGUCCUAAGUCAACAGAUCUUCUGUUGAUAUGGAUGCAGUUCACAGACUAAAUGUCGGUCGGGGAAGAUGUAUUCUUCUCAUAAGAUAUAGUCGGACCUCUCCUUAAUGGGAGCUAGCGGAUGAAGUGAUGCAACACUGGAGCCGCUGGGAACUAAUUUGUAUGCGAAAGUAUAUUGAUUAGUUUUGGAGUACUCGUGGUCG
Method in brief: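 Library with all eight P1ex-region intron nucleotides randomised, intron inside the knt kanamycin-resistance gene on pET-22b(+), in E. coli BL21(DE3). Cells grew overnight at 37°C or 30°C on LB agar with or without 25 μg/mL kanamycin (plus 100 μg/mL carbenicillin, 50 μM IPTG, 0.2% rhamnose), in six replicate transformations. Pooled colonies were amplicon-sequenced on Illumina HiSeq 2500. DiMSum fitness is the error-weighted combination of wild-type-normalised replicate fold changes, kanamycin versus none.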

Sequence	self-splicing fitness (ln) (30 °C)	self-splicing fitness (ln) (37 °C)
UUGCAGCAAUAUUACGCAUG	-2.52 ± 0.13	-2.99 ± 0.19
UUGCAGCAAUAUUACGCGUC	-3.44 ± 0.15	-1.61 ± 0.14
UUGCAGCAAUAUUACGCUAA	-1.12 ± 0.16	-0.551 ± 0.16
UUGCAGCAAUAUUACGCUUC	-3.76 ± 0.35	-2.76 ± 0.25
UUGCAGCAAUAUUACGGACG	-0.806 ± 0.17	-1.1 ± 0.23
UUGCAGCAAUAUUACGGAUC	-3.22 ± 0.27	-2.93 ± 0.37
UUGCAGCAAUAUUACGGCAG	-0.754 ± 0.14	-1.27 ± 0.17
UUGCAGCAAUAUUACGGCGG	-1.7 ± 0.081	-1.01 ± 0.11
UUGCAGCAAUAUUACGGCUA	0.128 ± 0.045	0.358 ± 0.06
UUGCAGCAAUAUUACGGGAU	-3.42 ± 0.17	-1.68 ± 0.12
UUGCAGCAAUAUUACGGGUC	-2.73 ± 0.21	-1.7 ± 0.22
UUGCAGCAAUAUUACGGUAC	-3.25 ± 0.33	-0.374 ± 0.18
UUGCAGCAAUAUUACGGUGG	-1.79 ± 0.1	-0.742 ± 0.1
UUGCAGCAAUAUUACGUAAC	-3.38 ± 0.16	-2.81 ± 0.21
UUGCAGCAAUAUUACGUAAG	-0.486 ± 0.089	0.527 ± 0.11
UUGCAGCAAUAUUACGUAGU	-3.7 ± 0.22	-2.51 ± 0.28
UUGCAGCAAUAUUACGUCAU	-2.15 ± 0.098	-1.13 ± 0.1
UUGCAGCAAUAUUACGUCUU	-0.0818 ± 0.069	0.289 ± 0.077
UUGCAGCAAUAUUACGUGUU	-3.1 ± 0.12	-2.47 ± 0.13
UUGCAGCAAUAUUACGUUAG	-1.22 ± 0.053	-0.899 ± 0.085
UUGCAGCAAUAUUACGUUAU	-3.03 ± 0.22	-2.6 ± 0.21
UUGCAGCAAUAUUACGUUGC	-1.47 ± 0.1	-2.86 ± 0.21
UUGGAGCAAUAUUACGACAA	-1.07 ± 0.16	-0.647 ± 0.18
UUGGAGCAAUAUUACGAGGU	-2.02 ± 0.47	–
UUGGAGCAAUAUUACGCAGC	-3.49 ± 0.49	-1.51 ± 0.36

Sequence	self-splicing fitness (ln) (30 °C)	self-splicing fitness (ln) (37 °C)
UUGGAGCAAUAUUACGCCAG	-3.07 ± 0.26	-2.07 ± 0.37
UUGGAGCAAUAUUACGCCCA	-2.38 ± 0.23	-0.932 ± 0.4
UUGGAGCAAUAUUACGCCUA	-1.39 ± 0.2	-0.365 ± 0.19
UUGGAGCAAUAUUACGCGAG	-1.15 ± 0.13	-1.8 ± 0.21
UUGGAGCAAUAUUACGCGCA	-2.48 ± 0.29	-1.09 ± 0.29
UUGGAGCAAUAUUACGCGGG	-3.26 ± 0.19	-0.733 ± 0.15
UUGGAGCAAUAUUACGCUAU	-2.08 ± 0.44	-1.93 ± 0.28
UUGGAGCAAUAUUACGGAGA	-2.59 ± 0.37	-1.08 ± 0.23
UUGGAGCAAUAUUACGGCGG	-2.99 ± 0.33	-1.88 ± 0.22
UUGGAGCAAUAUUACGGGAA	-3.64 ± 0.38	-0.82 ± 0.17
UUGGAGCAAUAUUACGGGGA	-3.14 ± 0.28	-2.72 ± 0.31
UUGGAGCAAUAUUACGGGUG	–	-1.44 ± 0.23
UUGGAGCAAUAUUACGGUCC	-3.7 ± 0.34	–
UUGGAGCAAUAUUACGGUGC	-1.64 ± 0.31	–
UUGGAGCAAUAUUACGUAGU	-1.95 ± 0.25	-2.6 ± 0.49
UUGGAGCAAUAUUACGUGCC	-3.24 ± 0.32	-2.74 ± 0.36
UUGGAGCAAUAUUACGUGGG	-2.17 ± 0.33	–
UUGUAGCAAUAUUACGAAGA	-3.14 ± 0.33	–
UUGUAGCAAUAUUACGAAUU	-1.53 ± 0.34	-1.47 ± 0.38
UUGUAGCAAUAUUACGACAC	-1.44 ± 0.22	-1.48 ± 0.32
UUGUAGCAAUAUUACGACGG	-0.599 ± 0.16	-1.63 ± 0.17
UUGUAGCAAUAUUACGAGAA	-1.54 ± 0.3	-1.42 ± 0.3
UUGUAGCAAUAUUACGAGAG	-2.07 ± 0.3	–
UUGUAGCAAUAUUACGAGAU	-2.41 ± 0.33	-2.32 ± 0.31
UUGUAGCAAUAUUACGAGCC	-1.8 ± 0.27	-1.78 ± 0.34
